One assay concerns the target H3S10phG12P (1–20) (UniProt P68431 2-21, G12P, phosphoserine at 10). Put plainly: fluorescence polarisation. A general note: Polarisation of emitted light reports the rotation of a fluorescent probe.
A further assay addresses H3S10phK14acG12P (1–20) (UniProt P68431 2-21, G12P, phosphoserine at 10; acetyl-lysine at 14). Briefly: fluorescence polarisation.

B1: 14-3-3ζ (natural protein)
chain: MDKNELVQKAKLAEQAERYDDMAACMKSVTEQGAELSNEERNLLSVAYKNVVGARRSSWRVVSSIEQKTEGAEKKQQMAREYREKIETELRDICNDVLSLLEKFLIPNASQAESKVFYLKMKGDYYRYLAEVAAGDDKKGIVDQSQQAYQEAFEISKKEMQPTHPIRLGLALNFSVFYYEILNSPEKACSLAKTAFDEAIAELDTLSEESYKDSTLIMQLLRDNLTLWTSDTQGDEAEAGEGGEN
For B1, the Kd came out at 19.9 µM with H3S10phG12P (1–20) and 40 µM in the assay with H3S10phK14acG12P (1–20).

The term Kd denotes the equilibrium constant for the complex coming apart. The low end stands for higher affinity, the high end for lower affinity.
